Laboratory results taken from the supplement of paper PMC10567573.
± gives the standard deviation.

Assay: protein stability index of a GFP-peptide fusion (GPS, HEK-293T) (PSI 1-6); higher = more stable
Conditions: c terminus: a fixed tail appended
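Also: 24-mer peptide tiles fused after GFP, lentivirally expressed, FACS-sorted into six equal bins by GFP/DsRed ratio, decoded by Illumina sequencing, PSI is the read-weighted mean bin number.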

Sequence	protein stability index (treatment: DMSO)	protein stability index (treatment: MLN4924 1 uM, 8 h)
QGAPASSFVYVNPEDGRIFAQRTF [PCDHGC5]	2.57 ± 0.27	2.78 ± 0.35
EIPTGKKDHECSECGKTFIYNSHL [ZNF232]	3.7 ± 0.21	3.49 ± 0.28
LFYILTFVGAIFNGLTLLILGVIG [RTN2]	2.7 ± 0.85	3.01 ± 0.67
DVSLCRWHPKPYCQALPYGPGYWM [FBXO34]	2.33 ± 0.35	2.15 ± 0.32
TTSEEAVGGATPDQTTSEETVGGA [HDAC6]	5.5 ± 0.32	5.57 ± 0.27
AFRYLSWILFPLLGCYAVYSLLYL [CLPTM1]	2.29 ± 0.44	3.03 ± 0.66
TYEVRMRTNLPIFKLKESCVRRRY [SNX12]	2.6 ± 0.15	2.54 ± 0.23
CKCSEGFVLAEDGRRCKKCTEGPI [MATN2]	4.99 ± 0.2	5.41 ± 0.081
LQYILAQIGFSVGLGNIWRFPYLC [SLC6A17]	2.27 ± 0.16	2.88 ± 0.31
RRDAETWFLSKTEELNKEVASNSE [KRT16]	5.09 ± 0.35	5.19 ± 0.12
PAAMGPPGAPPGRDLASVPPELTA [DVL3]	4.88 ± 0.29	4.89 ± 0.075
PWGVQGGQESEVPYKREEEALEER [PKD2L1]	5.16 ± 0.37	5.56 ± 0.19
EEFNVLEMEVMRRQLYAVNRRLRA [FATE1]	2.92 ± 0.21	3.1 ± 0.5
LSLCICGTAITSQYLAERYKVNTP [SLC35F2]	2.83 ± 0.51	2.63 ± 0.42
VLIRYPNSLDTTSWAWRGPGVLKV [LPCAT4]	2.77 ± 0.23	2.69 ± 0.8
MCFGPKKVKPAEAETAGAIMAFFL [SLC29A1]	2.42 ± 0.45	2.13 ± 0.21
DIVFSKIKGKSCRTITFEQFQEAL [TPPP]	2.46 ± 0.29	2.31 ± 0.13
AHIRAERDILVEADGAWVVKMFYS [STK38L]	2.24 ± 0.3	2.27 ± 0.2
SRYRSLRPNRQLGSMVEIAKQLQA [TRIM39]	2.74 ± 0.28	2.92 ± 0.34
YTSELYPTVIRNVGLGTCSMFSRV [SLC22A15]	2.13 ± 0.82	1.77 ± 0.12
SSFSDPFFVVETLCIIWFSFELLV [KCNA3]	3.06 ± 0.48	3.2 ± 0.32
LECVKFASHCLMNHPDLAKDLTEY [PDS5B]	2.62 ± 0.17	2.77 ± 0.78

Sequence	protein stability index (treatment: DMSO)	protein stability index (treatment: MLN4924 1 uM, 8 h)
SWWADLRALARNLIFGLITCLTGV [SPNS1]	3.88 ± 0.43	3.92 ± 0.24
EAAGGESALAPSVFKQAKDKVSDG [MAP2]	5.46 ± 0.26	5.43 ± 0.32
MQALEIELQSQLSMKASLEGNLAE [KRT17]	3.59 ± 0.19	3.45 ± 0.42
WKSHLKKVQKPLLQAPFLPPKAPP [RHOBTB1]	3.21 ± 0.17	3.37 ± 0.34
EREMAEIRDQMQQQLNDYEQLLDV [LMNB1]	5.15 ± 0.17	5.09 ± 0.19
QQNIPSTLLQDHENQRLFEMLGRK [WAS]	4.32 ± 0.17	4.25 ± 0.24
DILMEEEEGVVGGLSGGALSPLRA [TFE3]	4.45 ± 0.42	4.11 ± 0.23
ADFESEDEGEEFDDWEDDYDYPEE [EID1]	4.62 ± 0.29	4.87 ± 0.35
DPSGVSGATVGRKSRRSRSESETS [C18orf25]	5.69 ± 0.17	5.42 ± 0.49
KPSGALGSESYKSSAGSAEQTAPG [EHMT1]	5.26 ± 0.39	5.43 ± 0.22
KDESCYDNAEAAFSDDEEDLNSKG [INTS3]	5.6 ± 0.39	5.5 ± 0.18
PAYGMSPSLSTITSTSSSITSSIP [DVL3]	3.82 ± 0.26	3.65 ± 0.27
ANPQYTVYSQASTMSIPVAMETDG [PPP2R5C]	4.26 ± 0.33	4.41 ± 0.21
VFLHLLLLFKLVAPVTFRHHRYDD [CPN1]	3.12 ± 0.13	3.14 ± 0.23
SSSSSSSSSSSSSSSSGPGHGEPD [TMEM40]	5.49 ± 0.36	5.4 ± 0.35
DLKLGNFFINEAMELKVGDFGLAA [PLK2]	2.14 ± 0.078	2.63 ± 0.17
TRLFHDSAVTSVRILQDEQYLMAS [DCAF4]	2.76 ± 0.18	2.88 ± 0.25
TCSRVDYCLLSDHGCEYSCVNMDR [MATN2]	2.84 ± 0.24	2.82 ± 0.32
FQTLMFLVRDWSFPYEYSYGLQGG [ATL3]	3.88 ± 1	3.15 ± 0.28
SAGGHGGLLNDTSAPHLENSGHTI [KCNA4]	4.21 ± 0.46	4.48 ± 0.2
ALSCHEQEMVVSSLVIGALLASLT [SLC2A12]	3 ± 0.64	3.09 ± 0.29
DQLFMQEKARQLLGRLKPSHTSRT [MYBL2]	3.29 ± 0.27	3.76 ± 0.43
